Measurements taken from publication PMC3424542.

Tests used:
XtrLin28b ZKD = biological target: T1, XtrLin28b ZKD (Xenopus tropicalis, UniProt B4F6I0 125-175); experiment: ITC
T1 sequence: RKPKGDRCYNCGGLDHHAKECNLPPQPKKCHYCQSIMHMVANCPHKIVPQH

XtrLin28b CSD W39A = biological target: T2, XtrLin28b CSD W39A (Xenopus tropicalis, UniProt B4F6I0 27-114, W39A); experiment: ITC
T2 sequence: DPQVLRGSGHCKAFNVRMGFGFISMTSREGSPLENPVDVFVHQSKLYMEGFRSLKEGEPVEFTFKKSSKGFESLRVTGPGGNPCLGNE

XtrLin28b CSD [1] = biological target: T3, XtrLin28b CSD (Xenopus tropicalis, UniProt B4F6I0 27-114); experiment: ITC
T3 sequence: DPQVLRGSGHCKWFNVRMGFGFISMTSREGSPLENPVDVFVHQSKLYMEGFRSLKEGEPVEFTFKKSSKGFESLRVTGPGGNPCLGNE

XtrLin28b CSD F77A = biological target: T4, XtrLin28b CSD F77A (Xenopus tropicalis, UniProt B4F6I0 27-114, F77A); experiment: ITC
T4 sequence: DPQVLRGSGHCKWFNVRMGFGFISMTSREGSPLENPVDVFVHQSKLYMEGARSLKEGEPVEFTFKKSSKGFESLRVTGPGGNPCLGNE

XtrLin28b CSD H68A = biological target: T5, XtrLin28b CSD H68A (Xenopus tropicalis, UniProt B4F6I0 27-114, H68A); experiment: ITC
T5 sequence: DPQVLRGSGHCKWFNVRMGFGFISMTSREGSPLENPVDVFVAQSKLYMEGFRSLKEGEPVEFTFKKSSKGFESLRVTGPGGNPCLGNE

XtrLin28b CSD F48A = biological target: T6, XtrLin28b CSD F48A (Xenopus tropicalis, UniProt B4F6I0 27-114, F48A); experiment: ITC
T6 sequence: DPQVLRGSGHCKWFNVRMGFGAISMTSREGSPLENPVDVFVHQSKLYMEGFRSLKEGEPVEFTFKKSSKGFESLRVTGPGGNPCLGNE

XtrLin28b CSD F66A = biological target: T7, XtrLin28b CSD F66A (Xenopus tropicalis, UniProt B4F6I0 27-114, F66A); experiment: ITC
T7 sequence: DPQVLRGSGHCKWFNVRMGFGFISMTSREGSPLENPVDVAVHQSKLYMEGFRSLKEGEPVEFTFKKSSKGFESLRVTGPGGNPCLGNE

XtrLin28b CSD [2] = biological target: T3, XtrLin28b CSD; experiment: Trp fluorescence titration
XtrLin28b ZKD Y133A = biological target: T8, XtrLin28b ZKD Y133A (Xenopus tropicalis, UniProt B4F6I0 125-175, Y133A); experiment: ITC
T8 sequence: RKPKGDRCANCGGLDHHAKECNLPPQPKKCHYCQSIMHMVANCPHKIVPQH

XtrLin28b ZKD H155A = biological target: T9, XtrLin28b ZKD H155A (Xenopus tropicalis, UniProt B4F6I0 125-175, H155A); experiment: ITC
T9 sequence: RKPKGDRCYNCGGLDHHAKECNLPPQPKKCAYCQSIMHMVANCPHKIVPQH

B1: rZ6 (ssRNA)
RNA: AAGGAAAA
- binding result (XtrLin28b ZKD): no binding

B2: rZ2 (ssRNA)
RNA: AAGGUGAA
- Kd (XtrLin28b ZKD): 32 ± 2 nM

B3: rlet-7f5 (ssRNA)
RNA: GUCACACC
- Kd (XtrLin28b CSD W39A): 1130 ± 110 nM
- Kd (XtrLin28b CSD [1]): 18 ± 2 nM
- Kd (XtrLin28b CSD F77A): 1180 ± 60 nM
- Kd (XtrLin28b CSD H68A): 540 ± 50 nM
- Kd (XtrLin28b CSD F48A): 1610 ± 340 nM
- Kd (XtrLin28b CSD F66A): 1440 ± 200 nM

B4: dA4 (ssDNA)
DNA: TTTATTT
- Kd (XtrLin28b CSD [2]): 124 ± 12 nM

B5: rZ7 (ssRNA)
RNA: AAAGAAAA
- Kd (XtrLin28b ZKD): 6800 ± 2100 nM

B6: rlet-7f4 (ssRNA)
RNA: GGUCACAC
- Kd (XtrLin28b CSD [1]): 66 ± 9 nM

B7: rlet-7f3 (ssRNA)
RNA: GACAAAC
- Kd (XtrLin28b CSD [1]): 1360 ± 600 nM

B8: dG6 (ssDNA)
DNA: TTTTTGT
- Kd (XtrLin28b CSD [2]): 81 ± 10 nM

B9: rG1 (ssRNA)
RNA: GUUUUUU
- Kd (XtrLin28b CSD [1]): 35 ± 2 nM

B10: dG1 (ssDNA)
DNA: GTTTTTT
- Kd (XtrLin28b CSD [2]): 12 ± 1 nM

B11: dG4 (ssDNA)
DNA: TTTGTTT
- Kd (XtrLin28b CSD [2]): 119 ± 16 nM

B12: dC5 (ssDNA)
DNA: TTTTCTT
- Kd (XtrLin28b CSD [2]): 154 ± 26 nM

B13: dC6 (ssDNA)
DNA: TTTTTCT
- Kd (XtrLin28b CSD [2]): 87 ± 14 nM

B14: dG2 (ssDNA)
DNA: TGTTTTT
- Kd (XtrLin28b CSD [2]): 39 ± 4 nM

B15: dA5 (ssDNA)
DNA: TTTTATT
- Kd (XtrLin28b CSD [2]): 176 ± 8 nM

B16: dG5 (ssDNA)
DNA: TTTTGTT
- Kd (XtrLin28b CSD [2]): 45 ± 4 nM

B17: dT6 (ssDNA)
DNA: TTTTTT
- Kd (XtrLin28b CSD [2]): 169 ± 30 nM

B18: rGA6 (ssRNA)
RNA: GAAAAAA
- binding result (XtrLin28b CSD [1]): no binding

B19: dT9 (ssDNA)
DNA: TTTTTTTTT
- Kd (XtrLin28b CSD [2]): 44 ± 3 nM

B20: rA8 (ssRNA)
RNA: AAAAAAAA
- binding result (XtrLin28b ZKD): no binding

B21: dT5 (ssDNA)
DNA: TTTTT
- Kd (XtrLin28b CSD [2]): 680 ± 40 nM

B22: rlet-7f2 (ssRNA)
RNA: GUCAAAC
- Kd (XtrLin28b CSD [1]): 54 ± 9 nM

B23: rZ3 (ssRNA)
RNA: AAAGAGAA
- Kd (XtrLin28b ZKD): 200 ± 30 nM

B24: rlet-7f1 (ssRNA)
RNA: GUCAUAC
- Kd (XtrLin28b CSD [1]): 13 ± 2 nM

B25: rZ4 (ssRNA)
RNA: AAGAAGAA
- Kd (XtrLin28b ZKD): 600 ± 170 nM

B26: dC2 (ssDNA)
DNA: TCTTTTT
- Kd (XtrLin28b CSD [2]): 137 ± 22 nM

B27: dA1 (ssDNA)
DNA: ATTTTTT
- Kd (XtrLin28b CSD [2]): 84 ± 5 nM

B28: rlet-7f (rlet-7f0) (ssRNA)
RNA: GUCACAC
- Kd (XtrLin28b CSD [1]): 46 ± 3 nM

B29: dA6 (ssDNA)
DNA: TTTTTAT
- Kd (XtrLin28b CSD [2]): 147 ± 15 nM

B30: dT7 (ssDNA)
DNA: TTTTTTT
- Kd (XtrLin28b CSD [2]): 59 ± 5 nM

B31: dG7 (position 7) (ssDNA)
DNA: TTTTTTG
- Kd (XtrLin28b CSD [2]): 80 ± 10 nM

B32: dA7 (heptaadenosine) (ssDNA)
DNA: AAAAAAA
- binding result (XtrLin28b CSD [2]): no binding

B33: rU7 (ssRNA)
RNA: UUUUUUU
- binding result (XtrLin28b ZKD): no binding
- Kd (XtrLin28b CSD [1]): 530 ± 65 nM

B34: dA2 (ssDNA)
DNA: TATTTTT
- Kd (XtrLin28b CSD [2]): 311 ± 24 nM

B35: dC7 (ssDNA)
DNA: TTTTTTC
- Kd (XtrLin28b CSD [2]): 59 ± 4 nM

B36: dG3 (ssDNA)
DNA: TTGTTTT
- Kd (XtrLin28b CSD [2]): 139 ± 8 nM

B37: dC3 (ssDNA)
DNA: TTCTTTT
- Kd (XtrLin28b CSD [2]): 71 ± 3 nM

B38: rG1b (ssRNA)
RNA: GUCUUUU
- Kd (XtrLin28b CSD [1]): 27 ± 3 nM

B39: dA3 (ssDNA)
DNA: TTATTTT
- Kd (XtrLin28b CSD [2]): 137 ± 10 nM

B40: dC1 (ssDNA)
DNA: CTTTTTT
- Kd (XtrLin28b CSD [2]): 45 ± 4 nM

B41: dC4 (ssDNA)
DNA: TTTCTTT
- Kd (XtrLin28b CSD [2]): 73 ± 6 nM

B42: rZ1 (ssRNA)
RNA: AAGGAGAA
- Kd (XtrLin28b ZKD): 45 ± 4 nM
- Kd (XtrLin28b ZKD Y133A): 2200 ± 700 nM
- Kd (XtrLin28b ZKD H155A): 2600 ± 600 nM

B43: dG7 (heptaguanosine) (ssDNA)
DNA: GGGGGGG
- binding result (XtrLin28b CSD [2]): no binding

B44: rZ8 (ssRNA)
RNA: AAGGGGAA
- binding result (XtrLin28b ZKD): no binding

B45: dA7 (position 7) (ssDNA)
DNA: TTTTTTA
- Kd (XtrLin28b CSD [2]): 113 ± 15 nM

B46: rlet-7f6 (ssRNA)
RNA: GGUCACACC
- Kd (XtrLin28b CSD [1]): 21 ± 4 nM

B47: dT8 (ssDNA)
DNA: TTTTTTTT
- Kd (XtrLin28b CSD [2]): 32 ± 1 nM
